Laboratory results as given in paper PMC6459835, “The RNA binding activity of the first identified trypanosome protein with Z-DNA-binding domains”.

Tests used:
Assay in all cases: EMSA
Settings in all cases: RBB50: 20 mM Tris-HCl pH 7.6, 50 mM KCl, 5 mM MgCl2, 100 mg/mL BSA (so in the source), 10% glycerol, 1 mM DTT, plus 100 mM KCl and 20 U RNasin; 20 ul, 30 min, RT …
[1] = test system: RBP7910 F167A (Trypanosoma brucei)
[2] = test system: RBP7910 P164A (Trypanosoma brucei)
[3] = test system: RBP7910 P76A (Trypanosoma brucei)
[4] = test system: RBP7910 P77A (Trypanosoma brucei)
[5] = test system: RBP7910 R53A (Trypanosoma brucei)
[6] = test system: RBP7910 T52A (Trypanosoma brucei)
[7] = test system: RBP7910 W188A (Trypanosoma brucei)
[8] = test system: RBP7910 W56A (Trypanosoma brucei)
[9] = test system: RBP7910 W79A (Trypanosoma brucei)

Question: gA6[14] (delta16G) gRNA with U-tail was tested. Which Kd [1] did it give?
Answer: 0.3 nM

Question: And the Kd [2]?
Answer: 0.27 nM

Question: What about the Kd [3] of the same substance?
Answer: 0.18 nM

Question: What about the Kd [4] of the same substance?
Answer: 0.3 nM

Question: What about the Kd [5] of the same substance?
Answer: 0.81 nM

Question: What about the Kd [6] of the same substance?
Answer: 0.61 nM

Question: What about the Kd [7] of the same substance?
Answer: 0.55 nM

Question: What about the Kd [8] of the same substance?
Answer: 0.37 nM

Question: What about the Kd [9] of the same substance?
Answer: 0.32 nM
